Consider three substances from paper PMC10769282.

In this assay the target is SARS-CoV-2 Spike, BA.1 variant of concern, 21-amino-acid truncated form (SARS-CoV-2 (BA.1)) (UniProt P0DTC2).
With SA58 VH T53L A61S (antibody), the IC50, neutralisation of BA.1 Spike pseudovirus was 12 µg/mL.

Consider SA58 VH T53L A61S, VL N95V (antibody), for which the IC50, neutralisation of BA.1 Spike pseudovirus came to 11 µg/mL.

SA58 VL S54T (antibody): the IC50, neutralisation of BA.1 Spike pseudovirus was 12 µg/mL.
